Experiment [1] concerns the target T1, IL-32alpha (ImmunoTools) (human, UniProt P24001-4 1-131, limits assumed).
T1 construct: Bought from ImmunoTools; also called IL-32α
T1 sequence (looked up): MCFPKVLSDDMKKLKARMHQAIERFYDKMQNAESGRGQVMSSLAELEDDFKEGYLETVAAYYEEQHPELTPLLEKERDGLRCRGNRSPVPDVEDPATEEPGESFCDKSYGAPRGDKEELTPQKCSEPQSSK
Description: ELISA, antigen coated at 1 µg/ml, serial dilutions of MAB. As for the experimental part:
(§1) EC50 binding of exemplary anti-IL-32 antibodies of the present invention to IL-32γ (R&D) or IL-32α (ImmunoTools), was determined by ELISA. Serial dilutions of MABs (from 100,000 ng/ml down to 1.69 ng/ml) were incubated for 2 hours with antigen-coated plates (coating overnight at 1 μg/ml in PBS, followed by wash out and blocking with 2% BSA in PBS). The plates were subsequently washed and binding of MABs was detected with anti-human HRP-conjugated Fc-gamma-specific secondary antibody (Jackson ImmunoResearch, Europe Ltd., Cambridgeshire, UK). Concentrations of MAB resulting in half of maximal binding to respective antigens (EC50, ng/ml) were calculated using Prism 4 GraphPad software on sigmoidal dose-response curves (variable slope, 4 parameters) obtained by plotting the log of the concentration versus OD 450 nm measurements; for the results see FIG. 3 and Table 4 below.

For experiment [2], the target named is T1, IL-32alpha (ImmunoTools). Description: ELISA, antigen coated on plate. As for the experimental part:
as §1

From patent US20190112367A1 (IMMUNOQURE, published 2019) come the findings set out here.

B1: anti-IL-32 antibody 2C2 (IgG3, lambda) (antibody, V domains shown)
VH: QLRVQESGPGLLKPAETLSLTCSVSSGSVSNSRYYWAWIRQSPGKGLEWIGSMYYRGRSYYNPSLKSRLTISIDTSKNQFSLKLTSLTAADTAVYYCAAAVYHDLDYWGQGTLVTVSS
VL: QSVLTQPPSVSAAPGQKVTISCSGSGSSIGNNYVSWYQQLPGAAPKLLIYDNTKRPSGIPDRFSGSKSGTSATLAITGLQPGDAADYYCGTWDSSFSVFWVFGGGTKLTVLS
notes: Human patient-derived antibody, recombinantly expressed; the chains are put together from these; also called MAB 2C2; exemplary anti-IL-32 2C2 antibody
For the molecule B1, the EC50 in the experiment with IL-32alpha (ImmunoTools) [1] was above 30 mg/L.

B2: anti-IL-32 antibody 26A6 (IgG1, lambda) (antibody, V domains shown)
VH: QVQLVESGGGVVQPGRSLRLSCVASGLTFRTYGMHWVRQAPGNGLEWVAIIWHDGNKKYFADSVKGRFTISRDNSKNSLYLQMNSLRVEDTAVYYCAREMNGIDVWGQGTTVTVSS
VL: SYELTQPPSVSVSPGQTARITCSGDALPETYVYWYQQKSGQAPVKLIYEDSERPSGIPERFSGSSSGTLATLTISGAHVEDEADYYCYSTDSSGIGVFGGGTKVTVLS
notes: IgG1, lambda; also called MAB 26A6
With B2, in the experiment with IL-32alpha (ImmunoTools) [2], the binding result was “no binding (tested: 100 ug/ml (highest concentration tested))”.

B3: anti-IL-32 antibody 14B3 (IgG1, lambda) (antibody)
heavy: not shown
light: SYELTQPPSVSVSPGQTARITCSGDALPETYVYWYQQKSGQAPVKLIYEDSERPSGIPERFSGSSSGTLATLTISGAHVEDEADYYCYSTDSSGIGVFGGGTKLTVLSQPKAAPSVTLFPPSSEELQANKATLVCLISDFYPGAVTVAWKADSSPVKAGVETTTPSKQSNNKYAASSYLSLTPEQWKSHKSYSCQVTHEGSTVEKTVAPTECS
notes: also called MAB 14B3
In the case of B3, the binding result in the experiment with IL-32alpha (ImmunoTools) [2] is listed as “no binding (tested: 100 ug/ml (highest concentration tested))”.

B4: anti-IL-32 antibody 19A1 (IgG1, lambda) (antibody)
heavy: not shown
light: B3 light
notes: also called MAB 19A1
As to B4, the binding result in the experiment with IL-32alpha (ImmunoTools) [2] is “no binding (tested: 100 ug/ml (highest concentration tested))”.
